The target in experiment [1] is Mouse CD24 (Heat Stable Antigen, Ly-52, Nectadrin) on mouse erythrocytes (mouse) (UniProt P24807). Description: flow cytometry on mouse RBCs (++++ = MFI > 500).
Experiment [2] shares this target. Kind of experiment: flow cytometry histogram on C57BL/6 mouse erythrocytes, PE-anti rat Ig; antibody quantity of this sample not given; RBC alone 2.80 [continued) I]. (Flow cytometry measures light scatter and fluorescence of single cells or particles in a stream.)
Experiment [3] concerns the target TER-119 antigen (Ly76, 52 kD glycophorin A-associated protein) on mouse erythrocytes (mouse). The experiment is described as above.
Experiment [4] concerns the target Band 3 antigen on mouse erythrocytes (mouse) (UniProt P04919). Description: flow cytometry on mouse RBCs (++++ = MFI > 500).
The target in experiment [5] is TER-119 antigen (Ly76, 52 kD glycophorin A-associated protein) on mouse erythrocytes (mouse). Description: cell-based or functional assay.
Experiment [6] shares this target. Description: flow cytometry saturation binding on RBCs.
The target is the same in experiment [7]. Description: flow cytometry on mouse RBCs (++++ = MFI > 500).
Experiment [8] has the same target. Description: flow cytometry on mouse RBCs (+++ = MFI > 250).

UniProt P24807, sequence (P24807 27-53): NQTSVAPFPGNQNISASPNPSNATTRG
UniProt P04919, sequence (P04919 whole entry): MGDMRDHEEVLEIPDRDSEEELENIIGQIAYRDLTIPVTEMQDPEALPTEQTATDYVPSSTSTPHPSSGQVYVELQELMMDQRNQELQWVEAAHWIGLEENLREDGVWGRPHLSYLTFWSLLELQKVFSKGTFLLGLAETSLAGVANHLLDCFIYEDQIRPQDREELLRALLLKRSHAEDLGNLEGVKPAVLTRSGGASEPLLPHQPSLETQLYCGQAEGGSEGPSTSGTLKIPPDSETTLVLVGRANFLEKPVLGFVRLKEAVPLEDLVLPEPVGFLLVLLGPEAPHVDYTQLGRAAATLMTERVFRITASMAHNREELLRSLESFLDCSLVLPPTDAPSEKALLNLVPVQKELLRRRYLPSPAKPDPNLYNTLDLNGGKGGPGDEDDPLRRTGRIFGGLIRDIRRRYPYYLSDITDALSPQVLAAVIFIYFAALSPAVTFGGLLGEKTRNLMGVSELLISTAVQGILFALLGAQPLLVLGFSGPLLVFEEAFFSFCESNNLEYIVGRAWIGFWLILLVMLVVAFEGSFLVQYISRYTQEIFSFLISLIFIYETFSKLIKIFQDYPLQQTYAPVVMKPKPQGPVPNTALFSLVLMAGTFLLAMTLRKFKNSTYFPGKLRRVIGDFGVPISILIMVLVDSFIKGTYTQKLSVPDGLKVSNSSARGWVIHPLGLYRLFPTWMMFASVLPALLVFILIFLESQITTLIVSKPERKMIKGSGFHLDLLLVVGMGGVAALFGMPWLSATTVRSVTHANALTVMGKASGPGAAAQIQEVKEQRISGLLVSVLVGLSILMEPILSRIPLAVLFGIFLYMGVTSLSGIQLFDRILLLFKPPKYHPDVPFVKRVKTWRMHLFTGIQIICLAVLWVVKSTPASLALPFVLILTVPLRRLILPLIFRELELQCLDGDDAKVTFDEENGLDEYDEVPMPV

“M1/69 (rat IgG2b antibody to mouse CD24)” came in with an MFI in experiment [1] of over 500 mfi. The Median : YLW-HLog in experiment [2] was 113.

With Isotype control (antibody), the Median : YLW-HLog in experiment [2] and in experiment [3] was 2.76 throughout.

On to “34-3C (anti-Band 3 mAb, mouse IgG2a) (antibody)”, for which the MFI in experiment [4] is over 500 mfi.

B1: TER-119 antibody (rat IgG2b monoclonal antibody to the mouse TER-119 antigen) (antibody, V domains shown)
VH: EVKLQESGGGLVQPGGSLKLSCVASGFTFRDHWMNWVRQAPGKTMEWIGDIRPDGSDTNYAPSVRNRFTISRDNARSILYLQMSNMRSDYTATYYCVRDSPTRAGLMDAWGQGTSVTVSS
VL: DIQMTQSPSVLSASVGDRVTLNCKASQNINKYLNWYQQKLGEAPKVLIYNTNNLQTGIPSRFSGSGSGTDFTLTISSLQPEDFATYFCFQHYTWPTFGGGTKLEIKR
Regarding B1, in experiment [5], the phagocytic index of TER-119 opsonized RBCs by RAW264.7 macrophages (lowest effective concentration) came to 1.25 µg/mL and the phagocytic index of TER-119 opsonized RBCs by RAW264.7 macrophages (plateau) was 5 µg/mL. Further, the equilibrium dissociation constant (Kd) (usually the equilibrium constant for the complex coming apart) in experiment [6] is 30 nM. The MFI in experiment [7] is over 500 mfi. For the same molecule, the Median : YLW-HLog in experiment [3] came to 112.

B2: Deglycosylated TER-119 (antibody, V domains shown)
VH: B1 VH
VL: B1 VL
modifications: Fc glycan removed (a variant without the Fc glycan)
Turning to B2, the MFI in experiment [8] fell in the range of 250 to 500 mfi. In experiment [3], this molecule displayed a Median : YLW-HLog of 126.

The record behind these values is patent publication US20200247903A1.
